Experimental data as given in patent US20260265385A1 (ANAPTYSBIO, published 2026).
Where a chain is given by its changes, count along the chain named.

T1: recombinant human IL-2Rβ (extracellular domain, Ala1-Thr215) (human, UniProt P14784 27-240)
T1 construct: extracellular domain; Analyte in SPR; Ala1-Thr215 is counted on the mature protein; also called human LL-2Rβ; Human IL-2RB
T1 sequence (looked up): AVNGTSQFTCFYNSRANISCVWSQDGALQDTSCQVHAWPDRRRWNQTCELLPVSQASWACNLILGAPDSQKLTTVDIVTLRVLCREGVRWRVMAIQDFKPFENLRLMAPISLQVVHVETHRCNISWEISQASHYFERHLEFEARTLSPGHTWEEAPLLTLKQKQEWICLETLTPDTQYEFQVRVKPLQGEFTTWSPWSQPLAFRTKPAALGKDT

T2: recombinant cynomolgus IL-2Rβ (extracellular domain, Ala1-Thr215) (cynomolgus, UniProt Q38J85 27-240)
T2 construct: extracellular domain; Analyte in SPR; also called cynomolgus LL-2Rβ; Cyno IL-2RB
T2 sequence (looked up): T1 sequence (looked up) with Q7R, A66T, T74A, L83M, V92M, E127K, L158M

B1: APE14970 (antibody, V domains shown)
VH: EVQLVQSGAEVKKPGATVKISCKVSGFNFKDSLMHWVQQAPGKGLEWMGWIDSENGETEYAPGFQDRVTITADTSTDTAYMELSSLRSEDTAVYYCARGGPWFLSYWGQGTTVTVSS
VL: EIVMTQSPATLSVSPGERATLSCRASQIISNNLHWYQQKPGQAPRLLIIYGLQSISGIPARFSGSRSGTEFTLTISSLQSEDFAVYFCQQSNNWPWTFGQGTKLEIKR
notes: M10-1275 series
B2: APE15037 (antibody, V domains shown)
VH: B1 VH with M34L
VL: B1 VL
notes: M10-1275 series
B3: APE15035 (antibody, V domains shown)
VH: B1 VH with N55S
VL: B1 VL
notes: M10-1275 series
B4: APE15036 (antibody, V domains shown)
VH: B1 VH with M34V
VL: B1 VL
notes: M10-1275 series
B5: APE14969 (antibody, V domains shown)
VH: B1 VH
VL: B1 VL with R66G
notes: M10-1275 series
B6: APE15033 (antibody, V domains shown)
VH: B1 VH with N55Q
VL: B1 VL
notes: M10-1275 series
B7: APE15038 (antibody, V domains shown)
VH: B1 VH with M34I
VL: B1 VL
notes: M10-1275 series
B8: APE15056 (antibody, V domains shown)
VH: B1 VH
VL: B1 VL with W94F
notes: M10-1275 series
B9: APE15032 (antibody, V domains shown)
VH: B1 VH with N55A
VL: B1 VL
notes: M10-1275 series
B10: APE15053 (antibody, V domains shown)
VH: B1 VH
VL: B1 VL with W96Y
notes: M10-1275 series
B11: APE15034 (antibody, V domains shown)
VH: B1 VH with N55T
VL: B1 VL
notes: M10-1275 series
B12: APE14971 (antibody, V domains shown)
VH: B1 VH
VL: B1 VL with I49Y, R66G, F87Y
notes: M10-1275 series
B13: APE15031 (antibody, V domains shown)
VH: B1 VH with N55H
VL: B1 VL
notes: M10-1275 series
B14: APE15057 (antibody, V domains shown)
VH: B1 VH
VL: B1 VL with I49Y, F87Y
notes: M10-1275 series
B15: APE15055 (antibody, V domains shown)
VH: B1 VH
VL: B1 VL with W94Y
notes: M10-1275 series
B16: APE15054 (antibody, V domains shown)
VH: B1 VH
VL: B1 VL with W96F
notes: M10-1275 series
B17: APE15280 (antibody, V domains shown)
VH: QVQLVQSGAEVKKPGASVKVSCKASGYTFSRQWIEWVRQAPGQGLEWMGEILPGSGSINHNEKFQGRVTMTRDTSTSTVYMELSSLRSEDTAVYYCTRHYGSFDYWGQGTTVTVSS
VL: DIQMTQSPSSLSASVGDRVTITCKASQNVGTDVAWYQQKPGKAPKSLIYSASYRYSGVPSRFSGSGSGTDFTLTISSLQPEDFATYFCHQYESYPFTFGQGTKLEIKR
notes: M6-p1625 series
B18: APE15292 (antibody, V domains shown)
VH: B17 VH with S30I, R31T, Q32Y
VL: B17 VL
notes: M6-p1625 series
B19: APE15288 (antibody, V domains shown)
VH: B17 VH with T28S, S30R, Q32H, E35Q
VL: B17 VL
notes: M6-p1625 series
B20: APE15298 (antibody, V domains shown)
VH: B17 VH with T28I, Q32Y, E35Q, G56V
VL: B17 VL
notes: M6-p1625 series
B21: APE15370 (antibody, V domains shown)
VH: B17 VH with A24V, Q32Y, E35Q
VL: B17 VL
notes: M6-p1625 series
B22: APE15284 (antibody, V domains shown)
VH: B17 VH with S30G, Q32Y, E35Q
VL: B17 VL
notes: M6-p1625 series
B23: APE15286 (antibody, V domains shown)
VH: B17 VH with T28L, Q32Y, E35Q
VL: B17 VL
notes: M6-p1625 series
B24: APE15299 (antibody, V domains shown)
VH: B17 VH with T28S, R31K, Q32H, E35Q
VL: B17 VL
notes: M6-p1625 series
B25: APE15291 (antibody, V domains shown)
VH: B17 VH with S30A, Q32H, E35G
VL: B17 VL
notes: M6-p1625 series
B26: APE15296 (antibody, V domains shown)
VH: B17 VH with T28R, R31T
VL: B17 VL
notes: M6-p1625 series
B27: APE15369 (antibody, V domains shown)
VH: B17 VH with V18I, S30T, Q32F, E35Q
VL: B17 VL
notes: M6-p1625 series
B28: APE15371 (antibody, V domains shown)
VH: B17 VH with V18I, Q32Y, E35Q
VL: B17 VL
notes: M6-p1625 series
B29: APE15297 (antibody, V domains shown)
VH: B17 VH with T28S, S30I, R31I, Q32H, E35Q
VL: B17 VL
notes: M6-p1625 series
B30: APE15285 (antibody, V domains shown)
VH: B17 VH with T28I, S30A, R31S, Q32N, E35Q
VL: B17 VL
notes: M6-p1625 series
B31: APE15368 (antibody, V domains shown)
VH: B17 VH with A24V, S30T, Q32F, E35Q
VL: B17 VL
notes: M6-p1625 series
B32: APE15300 (antibody, V domains shown)
VH: B17 VH with T28A, S30V, R31D, Q32N, E35Q
VL: B17 VL
notes: M6-p1625 series
B33: APE15283 (antibody, V domains shown)
VH: B17 VH with T28K, R31S, Q32Y, E35Q
VL: B17 VL
notes: M6-p1625 series
B34: APE15290 (antibody, V domains shown)
VH: B17 VH with T28P, S30T, R31S, Q32Y, E35Q
VL: B17 VL
notes: M6-p1625 series
B35: APE15287 (antibody, V domains shown)
VH: B17 VH with T28K, Q32Y, E35Q
VL: B17 VL
notes: M6-p1625 series
B36: APE15293 (antibody, V domains shown)
VH: B17 VH with R31S, Q32H, E35Q
VL: B17 VL
notes: M6-p1625 series

How the values were obtained:
[1] = target: T1, recombinant human IL-2Rβ (extracellular …); experiment: SPR, antibody captured on Protein A chip
Procedure: (§1) Surface plasmon resonance (SPR) was used to determine the binding affinities. The M6-1625 and M10-1275 antibodies were captured onto a Cytiva Protein A Chip for 60 seconds at 0.5 μg/mL for 60 seconds. The antibodies were exposed to recombinant human LL-2Rβ or cynomolgus LL-2Rβ (corresponding to residues Ala1-Thr215 of the extracellular domains excluding the signal peptide) at typical concentrations ranging from 0.4 nM to 11 nM with typical 300 second associations and 1200 second dissociations using a BiacoreS200 instrument. Sensorgrams were fit globally using a 1:1 binding model in the Biacore T200 Evaluation Software to calculate on- and off-rates and KD values.

[2] = target: T2, recombinant cynomolgus IL-2Rβ …; experiment: SPR, antibody captured on Protein A chip
Procedure: as §1

| Binder | Kd [1] | Kd [2] |
| --- | --- | --- |
| B1 | 0.074 nM | 0.014 nM |
| B2 | 0.124 nM | 0.0171 nM |
| B3 | 0.147 nM | 0.0194 nM |
| B4 | 0.165 nM | 0.0195 nM |
| B5 | 0.187 nM | 0.018 nM |
| B6 | 0.106 nM | 0.0128 nM |
| B7 | 0.12 nM | 0.0185 nM |
| B8 | 0.122 nM | 0.0198 nM |
| B9 | 0.0738 nM | 0.0124 nM |
| B10 | 0.0915 nM | 0.0399 nM |
| B11 | 0.19 nM | 0.0222 nM |
| B12 | 0.278 nM | 0.026 nM |
| B13 | 0.108 nM | 0.0189 nM |
| B14 | 0.144 nM | 0.024 nM |
| B15 | 0.369 nM | 0.0838 nM |
| B16 | 0.429 nM | 0.108 nM |
| B17 | 0.161 nM | 0.202 nM |
| B18 | 0.376 nM | 0.437 nM |

| Binder | Kd [1] | Kd [2] |
| --- | --- | --- |
| B19 | 0.172 nM | 0.199 nM |
| B20 | 0.0981 nM | 0.132 nM |
| B21 | 0.11 nM | 0.0982 nM |
| B22 | 0.0566 nM | 0.0705 nM |
| B23 | 0.0873 nM | 0.104 nM |
| B24 | 0.348 nM | 0.39 nM |
| B25 | 1.98 nM | 2.68 nM |
| B26 | 0.851 nM | 0.825 nM |
| B27 | 0.0674 nM | 0.0634 nM |
| B28 | 0.0917 nM | 0.0821 nM |
| B29 | 0.157 nM | 0.153 nM |
| B30 | 0.31 nM | 0.327 nM |
| B31 | 0.0867 nM | 0.0783 nM |
| B32 | 1.41 nM | 1.16 nM |
| B33 | 0.312 nM | 0.318 nM |
| B34 | 0.261 nM | 0.305 nM |
| B35 | 0.169 nM | 0.186 nM |
| B36 | 0.351 nM | 0.359 nM |
